According to publication PMC8464039 (Nucleic Acids Research, 2021):
Substitutions are numbered along the chain they refer to.

T1: Csy complex (crRNA-guided surveillance complex) (Pseudomonas aeruginosa, UniProt Q02ML9;Q02MM0;Q02MM1;Q02MM2 1-434;1-327;1-342;1-187)
T1 sequence 1: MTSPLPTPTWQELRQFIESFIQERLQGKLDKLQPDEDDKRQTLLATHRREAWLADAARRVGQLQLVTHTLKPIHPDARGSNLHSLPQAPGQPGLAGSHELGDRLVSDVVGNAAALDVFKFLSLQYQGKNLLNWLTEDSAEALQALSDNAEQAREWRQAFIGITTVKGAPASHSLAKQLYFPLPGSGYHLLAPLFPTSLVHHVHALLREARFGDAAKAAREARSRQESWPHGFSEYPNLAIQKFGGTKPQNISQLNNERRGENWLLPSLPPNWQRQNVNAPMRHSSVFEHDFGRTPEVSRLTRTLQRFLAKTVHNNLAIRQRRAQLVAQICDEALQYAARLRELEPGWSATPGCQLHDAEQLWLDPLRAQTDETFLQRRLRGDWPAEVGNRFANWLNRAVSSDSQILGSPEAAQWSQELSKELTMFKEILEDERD
T1 sequence 2: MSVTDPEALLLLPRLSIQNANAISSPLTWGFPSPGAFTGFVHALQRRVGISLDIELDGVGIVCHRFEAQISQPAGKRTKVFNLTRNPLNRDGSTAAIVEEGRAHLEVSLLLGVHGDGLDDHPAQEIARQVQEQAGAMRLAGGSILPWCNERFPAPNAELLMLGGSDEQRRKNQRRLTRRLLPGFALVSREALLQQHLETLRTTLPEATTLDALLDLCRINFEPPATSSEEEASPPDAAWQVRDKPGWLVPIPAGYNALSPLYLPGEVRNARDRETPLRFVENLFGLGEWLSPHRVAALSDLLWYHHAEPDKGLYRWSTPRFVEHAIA
T1 sequence 3: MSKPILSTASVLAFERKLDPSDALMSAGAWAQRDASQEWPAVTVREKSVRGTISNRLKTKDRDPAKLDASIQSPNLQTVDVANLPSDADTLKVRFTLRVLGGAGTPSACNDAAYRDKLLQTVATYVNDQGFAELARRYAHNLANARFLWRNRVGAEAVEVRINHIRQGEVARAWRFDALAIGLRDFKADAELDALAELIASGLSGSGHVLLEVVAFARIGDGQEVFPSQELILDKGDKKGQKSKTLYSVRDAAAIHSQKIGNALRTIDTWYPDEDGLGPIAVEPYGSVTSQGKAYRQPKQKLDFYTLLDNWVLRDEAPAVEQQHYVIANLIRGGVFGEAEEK
T1 sequence 4: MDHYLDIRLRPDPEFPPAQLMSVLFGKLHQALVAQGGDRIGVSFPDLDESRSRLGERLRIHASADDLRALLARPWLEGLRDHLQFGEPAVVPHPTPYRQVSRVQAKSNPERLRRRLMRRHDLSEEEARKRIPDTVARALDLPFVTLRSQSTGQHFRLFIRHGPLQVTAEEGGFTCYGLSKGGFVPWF

T2: CsyRE3 (Pseudomonas aeruginosa, UniProt Q02ML9;Q02MM0;Q02MM1;Q02MM2 1-434;1-327;1-342;1-187, R207E;R219E;R258E)
T2 sequence 1: T1 sequence 1 with R207E, R219E, R258E
T2 sequence 2: T1 sequence 2
T2 sequence 3: T1 sequence 3
T2 sequence 4: T1 sequence 4

B1: dsDNANS (non-specific, 54 bp) (dsDNA)
DNA 1: GAGCGACTACGACATGAGCGCGCAGCTAAGACCGCCCGTAGATGCGTCGAGCGT
DNA 2: ACGCTCGACGCATCTACGGGCGGTCTTAGCTGCGCGCTCATGTCGTAGTCGCTC
B2: dsDNANS unlabeled (dsDNA)
DNA 1: B1 DNA 1
DNA 2: B1 DNA 2
B3: dsDNASP (specific target, 54 bp) (dsDNA)
DNA 1: GGAAGCCATCCAGGTAGACGCGGACATCAAGCCCGCCGTGAAGGTGCAGCTGCT
DNA 2: AGCAGCTGCACCTTCACGGCGGGCTTGATGTCCGCGTCTACCTGGATGGCTTCC
B4: Cas7f subunit of the Csy complex (natural protein, P. aeruginosa)
chain: T1 sequence 3

How the values were obtained:
[1] = biological target: T1, Csy complex (crRNA-guided surveillance …); test: EMSA
CsyRE3 = biological target: T2, CsyRE3; test: EMSA
[2] = biological target: T1, Csy complex (crRNA-guided surveillance …); test: competition
cryo-EM structure = biological target: the molecule itself; test: cryo-EM structure

| Binder | binding result [1] | binding result (CsyRE3) | binding result [2] | stoichiometry N (cryo-EM structure) |
| --- | --- | --- | --- | --- |
| B1 | no binding | no binding | – | – |
| B2 | – | – | no binding | – |
| B3 | binds | no binding | – | – |
| B4 | – | – | – | 6 |
